Data taken from publication PMC4333214.
Values joined by “and” are separate entries in the source; they are usually repeats but may differ in a detail not shown here. Identical values can stand only once.

Molecular target: FLβ.AP2 (AP2 comprising full-length β2, μ2 and σ2 subunits and the α-trunk domain) (UniProt P63010)
Assay: co-sedimentation

Chain of clathrin (Q00610 whole entry, looked up): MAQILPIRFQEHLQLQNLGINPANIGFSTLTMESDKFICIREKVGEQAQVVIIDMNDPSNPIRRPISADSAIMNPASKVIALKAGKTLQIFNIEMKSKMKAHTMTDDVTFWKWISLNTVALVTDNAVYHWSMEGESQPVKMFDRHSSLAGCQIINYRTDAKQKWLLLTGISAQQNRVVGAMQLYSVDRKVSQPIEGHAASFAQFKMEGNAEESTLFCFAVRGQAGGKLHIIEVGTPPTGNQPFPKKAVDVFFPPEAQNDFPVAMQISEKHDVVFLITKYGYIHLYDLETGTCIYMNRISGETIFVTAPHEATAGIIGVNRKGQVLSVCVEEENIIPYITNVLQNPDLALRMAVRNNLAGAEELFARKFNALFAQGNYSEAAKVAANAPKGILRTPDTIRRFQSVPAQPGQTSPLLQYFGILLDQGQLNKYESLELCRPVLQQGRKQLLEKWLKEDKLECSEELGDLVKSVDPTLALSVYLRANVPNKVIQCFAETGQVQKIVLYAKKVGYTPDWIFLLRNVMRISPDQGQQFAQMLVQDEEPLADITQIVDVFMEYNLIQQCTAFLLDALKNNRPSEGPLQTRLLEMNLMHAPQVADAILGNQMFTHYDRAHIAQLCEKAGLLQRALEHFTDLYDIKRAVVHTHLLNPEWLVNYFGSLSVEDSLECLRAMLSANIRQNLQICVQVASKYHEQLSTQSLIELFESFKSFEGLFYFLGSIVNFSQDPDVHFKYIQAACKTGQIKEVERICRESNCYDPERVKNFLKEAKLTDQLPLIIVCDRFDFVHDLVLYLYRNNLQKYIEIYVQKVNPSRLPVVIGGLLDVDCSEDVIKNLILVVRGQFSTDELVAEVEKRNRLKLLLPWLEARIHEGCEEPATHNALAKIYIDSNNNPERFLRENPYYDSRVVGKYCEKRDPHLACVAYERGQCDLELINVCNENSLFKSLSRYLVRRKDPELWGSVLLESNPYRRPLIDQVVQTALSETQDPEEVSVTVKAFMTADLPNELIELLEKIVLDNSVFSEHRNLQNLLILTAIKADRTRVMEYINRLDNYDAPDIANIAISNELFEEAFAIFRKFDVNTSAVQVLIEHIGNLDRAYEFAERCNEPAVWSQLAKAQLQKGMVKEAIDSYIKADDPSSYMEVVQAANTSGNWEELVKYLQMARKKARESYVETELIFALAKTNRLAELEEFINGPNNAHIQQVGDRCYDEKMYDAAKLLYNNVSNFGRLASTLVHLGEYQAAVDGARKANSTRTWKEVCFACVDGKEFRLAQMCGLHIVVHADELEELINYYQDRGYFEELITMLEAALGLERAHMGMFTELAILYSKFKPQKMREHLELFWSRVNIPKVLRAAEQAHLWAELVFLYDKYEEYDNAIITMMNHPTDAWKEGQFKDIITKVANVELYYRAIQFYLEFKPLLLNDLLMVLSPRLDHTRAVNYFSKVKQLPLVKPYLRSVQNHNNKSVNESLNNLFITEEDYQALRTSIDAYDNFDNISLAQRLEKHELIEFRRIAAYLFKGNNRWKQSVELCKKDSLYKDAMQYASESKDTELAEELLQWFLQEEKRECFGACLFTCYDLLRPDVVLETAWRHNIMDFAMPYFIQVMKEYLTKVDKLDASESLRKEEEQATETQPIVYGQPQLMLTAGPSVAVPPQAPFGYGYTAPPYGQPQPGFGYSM

- ratio of clathrin to AP2 in the liposome pellets: 26.5% and 5.2%
Substance: clathrin (from UniProt Q00610 1-1675) (complex)
